The experiment has as its target bacteriophage P22 coat protein (bacteriophage P22) (UniProt P26747). Kind of experiment: densitometry of SDS-PAGE of the purified particles; purified ASNase-P22 nanoreactors from different chromatograms, bands quantified with ImageJ; numbers per capsid calculated on 420 CP.

The source of these data is article PMC8170886.

As for “ASNase-SP chimeric protein (E. coli asparaginase II fused to the bacteriophage P22 scaffold protein) (from UniProt P00805 23-348) (enzyme)”, the ASNase-SP tetramers per capsid of 420 CP (tetramers per capsid) was 110, the monomers per capsid (monomers per capsid) was 448, the percent ASNase-SP in the nanoreactor's protein (densitometry) was 41.6% and the percent CP in the nanoreactor's protein (densitometry) was 58.4%.
